From a protein production outcome set (Wang et al. 2014)

Experiment: label from the status in PepcDB records

Row | Sequence | protein production
1 | MPRRRVETRRVDHDPGKRTLLLSPVLPLPTMRTCALALLTILLGAPAHGQSTDGPWTIDHVLTQRSLTDVDIGPDGNRVLWVKETPDPEADETTSDVYLTYRDDPHGDSTATLQLTRTGDNRAPRWSPDGEHIAFLSSREQEDAAESSGTQIWRLDPRGGAPEVITSVEHGVQGARWLDDDRLLFTAREQNTRYEQHLEQTEDDADVIEDTTLFRPVRLFTVHVGTGEVTRVTNNDHQIGEFAPSPNGSRVVYSLSDSPITADARNQPHQFLLNLNTGATTEIFDEQYVDPSNFQWTADGAGFYATDSYSSDPEHEGAGITKLYHYDLAARDYQEVPLEWGDKGVGYGGYTVVDGGLHVQLADGPTFEPRFYRKTSDGWAPAEVADERLEHASAFTAGPDGETVVFSHSTADTPPSYRVGTYREGALQRDETLTTLNENLDDLPIPRAEVVRWTGANGETVNGILHYPLDYDPDRAYPMMTVLHGGPSGVDLDAWSLGWTVYAPLLAQRDAFVFRPNYHGSGHHGLDFVESIKGKYYELEVPDIVSGIDSLAAAGVVDKDSLGVMGWSNGAILTTQLTIEHPELFQVAAPGAGDVNWTSDYGNCAFGVRFDRSYFKGAPWTYTEHYIEKSPLFEMPKVQTPTLIHHGTEDRAVPYEQGWEYYRALQQIGNAPVRFLSYPGEPHGLRQLSHQRRKVAEDLKWIDTYLFGETSMQERVSERLLADDAPLSLLETAEAPARTDGHYGVRANGTLVPETVTLGDTLTVGRFEVTRAQFRAYDADFEVPSGTAEYPAHGLAADRAQAYVDWLSEQTGRDYRLPTAAELAALKAARAGPSENTPAYWAGFTPTPDEYRRLRARLAQHPTEALLMPVGSRPAGHGPNGGGPLIYDVDGNVAEWARTADGIEAQNASALTLKDPKAETAPTPPRRVTGLRVVLDR | failed
2 | MPSDGLPKNLEPLAAGDPATIGPYVLVGRLGSGGMGTVYLGRAPEKGTHVAIKVIRPELAFDEATRARFRDEMENARKVASFCTAKVLDHGTFQNRPYMVTEYIAGTALAEHIAEHGPLDSGTLHGFALGVAAALAAIHKAGLVHRDLKPANVLLSLSGPRVIDFGIARALNTSTSHTQTGIVMGSPGWMAPEQLLEEKVTTKADIFAWGCLVAFAGNGRHPFGNGDAMTLGKRMLFAEPDIGNLDPPLDRLVARALAKDPDQRPTAQELLLELAGGTDSNDTNDVVSHALHQSWRPNFPPMPPGYPPPSPQAHSGMPGPQAQAQAPGQTTIAPQPYAHPQQGGPGPMPPQAAGPQGGPQGGPQSPPMPQRPGPQASHHTGQIPVVPPTTGRQPPRSPAAQGSSGGPQARPYVPPNTLPPHRPLRPDSSRSRLLIVFAVLGAVLLAVVLVFGLVFFQDWFSSTSDTNPPGQGQEQQSSAPKEDPDDESDKSDTQAADPQAGESLRFDLLDWYCGNQVLDRPLIVNGGEYCVAEIEAHNSANYPVKFRHDLQILAHASGEQTKADAPLHGEGADPLWAGPIQPGDTVRGYLVFIVHSELTPEVLILRSTVDSPGQQIEIPSGQPA | failed
3 | MPSDNTYIRFRQQQRDPLHVNSPVSAGNISGVQGSGSRHPPSPPTPTTQPSVNHSDAQAERLNNLTLDELLDSPGRAGLTRLDPKRPLATLWFDDDSTVAATVRSIFERDFKEPHANWSQTSKATIDRWYETFAQVYNWDRSINKRVRVEFEAKLNSRMSDQVSRWKGNWKEKGDEAKPKWIDPEGIYKHCSGQTSYKARARKRCEKTGETTPDFLELLDETHRKADGTFIDGKSEEIYKKVTSRIEEEESHMCSGDNPESTGSCGLSVHAKNKIFVEVAPRKKGRIYGVGSLQFEAFSAHSGSTLPSDDPVILSQKLAAAEACIQSQAEKINSFDILFDYLADKDPALAAILRRGSSTQTGPASANEAPVATAPEQQVANEETAAATLANLATGSSPSSIF | failed
4 | MPSFDIVSEITLHEVRNAVENANRVLSTRYDFRGVEAVIELNEKNETIKITTESDFQLEQLIEILIGSCIKRGIEHSSLDIPAESEHHGKLYSKEIKLKQGIETEMAKKITKLVKDSKIKVQTQIQGEQVRVTGKSRDDLQAVIQLVKSAELGQPFQFNNFRD | not failed
